Experiment [1] has as its target T1, human LAG-3 on cells (HEK293-hLAG-3 stable cell line) (human, UniProt P18627 23-525).
T1 sequence: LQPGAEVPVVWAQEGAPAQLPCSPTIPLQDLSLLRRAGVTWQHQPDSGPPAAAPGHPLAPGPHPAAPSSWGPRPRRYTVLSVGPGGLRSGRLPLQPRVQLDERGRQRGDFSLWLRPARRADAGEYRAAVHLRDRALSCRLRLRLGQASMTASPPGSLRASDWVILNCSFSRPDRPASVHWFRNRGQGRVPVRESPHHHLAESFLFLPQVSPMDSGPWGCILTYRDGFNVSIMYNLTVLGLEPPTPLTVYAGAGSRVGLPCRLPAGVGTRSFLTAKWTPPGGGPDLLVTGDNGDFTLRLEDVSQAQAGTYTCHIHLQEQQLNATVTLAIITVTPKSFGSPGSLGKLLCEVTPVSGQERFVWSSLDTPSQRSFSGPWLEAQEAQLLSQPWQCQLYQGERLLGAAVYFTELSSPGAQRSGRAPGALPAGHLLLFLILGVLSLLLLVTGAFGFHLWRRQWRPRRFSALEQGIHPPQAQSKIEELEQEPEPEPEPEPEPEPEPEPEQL
The experiment in a line: FACS, HEK293-hLAG-3, antibody 0.064 nM. The source says:
The pIRES plasmid with the monkey-derived full-length gene was transfected into the HEK293 cell line to construct a HEK293 stable cell line containing monkey LAG-3 (herein referred to as HEK293-cLAG-3 stable cell line). The HEK293-hLAG-3 stable cell line and HEK293-cLAG-3 stable cell line were expanded in a T-75 cell culture flask to a 90% confluence. The medium was aspirated, and the cells were washed with HBSS (Hanks' Balanced Salt Solution) 1-2 times, then treated with a enzyme-free cell dissociation fluid (Versene solution: Life technology) and the cells were collected. The cells were washed with HBSS buffer for 1-2 times. After counted, the cells were diluted with HBSS to 1-2×10⁶ cells per ml, added with 1% goat serum blocking solution, incubated on ice for 20-30 minutes, and then washed with HBSS for 2 times by centrifugation. The collected cells were suspended in the FACS buffer (HBSS+1% BSA) to 2×10⁶ cells/ml, added as 100 microliters per well to a 96-well FACS reaction plate, added with 100 microliters per well of the antibody sample to be tested, incubated on ice for 1-2 hours. The plate was washed twice with the FACS buffer by centrifugation, added with 100 microliters of fluorescent (Alexa 488)-labeled secondary antibodies per well, and incubated on ice for 0.5-1.0 hours. The plate was washed 2-3 times with FACS buffer by centrifugation, added with 100 μl fixative solution (4% Paraformaldehyde) per well to suspend the cells. 5-10 minutes later, it was washed 1-2 times with FACS buffer by centrifugation. The cells were suspended with 100 microliters of FACS buffer, FACS (FACSCalibur, BD) was used for detection and the results were analyzed.
(In general: Flow cytometry measures light scatter and fluorescence of single cells or particles in a stream.)

Experiment [2] has as its target T2, mouse LAG-3 protein with hFc tag (mLAG-3-hFc protein) (mouse; human, UniProt Q61790 24-442).
T2 construct: Made in HEK293 cells; also called mouse LAG-3 extracellular domain protein; not shown: human IgG Fc fragment (hFc) of the pCpC vector
T2 sequence: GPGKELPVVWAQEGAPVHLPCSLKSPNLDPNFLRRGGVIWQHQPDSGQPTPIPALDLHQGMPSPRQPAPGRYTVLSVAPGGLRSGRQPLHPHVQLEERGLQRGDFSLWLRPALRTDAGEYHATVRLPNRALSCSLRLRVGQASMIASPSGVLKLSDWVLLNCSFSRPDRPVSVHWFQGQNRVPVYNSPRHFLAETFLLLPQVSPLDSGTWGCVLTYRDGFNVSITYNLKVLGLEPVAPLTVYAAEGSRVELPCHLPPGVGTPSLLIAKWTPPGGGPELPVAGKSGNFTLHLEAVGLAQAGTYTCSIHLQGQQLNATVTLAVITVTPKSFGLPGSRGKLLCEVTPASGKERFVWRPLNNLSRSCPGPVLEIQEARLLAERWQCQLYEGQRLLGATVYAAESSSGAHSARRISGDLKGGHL
The experiment in a line: ELISA, mLAG-3-hFc coated; 0.0001 nM. Here is the method:
The plate was sealed with plastic film and incubated overnight at 4° C. The plate was washed 2 times with the plate washing solution (PBS+0.01% Tween20) on the next day, and added with the blocking solution (PBS+0.01% Tween20+1% BSA) and blocked at room temperature for 1-2 hours. The blocking solution was poured out, and the plate was added with 50-100 μl of the antibody sample to be tested to each well, incubated at 37° C. for 1-2 hours, and washed 2-3 times with a plate washing solution (PBS+0.01% Tween20). HRP (horseradish peroxidase) labeled secondary antibody was added, and the plate was incubated at 37° C. for 1-2 hours, and washed 2-3 times with a plate washing solution (PBS+0.01% Tween20). 100 μl of TMB substrate was added to each well. After incubated at room temperature for 15-30 minutes, the plate was added with 100 μl of stop solution (1.0N HCl) to each well.

The target in experiment [3] is T3, SWGPRPRRYTVLK-Biotin (human).
T3 construct: Overlapping peptide of the outer loop of human LAG-3; also called LAG-3 Extra cyclic peptide
T3 peptide: SWGPRPRRYTVLK-{Biotin′}
As to the kind of experiment: peptide scanning ELISA, biotin peptide on streptavidin. Here is the method: (§1) Fifteen overlapping peptides including the full length of the outer loop sequence were prepared and biotin was coupled to each C-terminus. Enzyme-linked immunosorbent assay (ELISA) was used to detect the binding of antibodies to these peptides. Streptavidin (sigma, Cat #M5432) was diluted with PBS to a final concentration of 1.0 μg/ml, and then added as 100 μl per well to a 96-well ELISA plate. The plate was sealed with plastic film and incubated overnight at 4° C. The plate was washed 2 times with the plate washing solution (PBS+0.01% Tween20) on the next day, and added with the blocking solution (PBS+0.01% Tween20+1% BSA) and blocked at room temperature for 1-2 hours. The blocking solution was poured off, and biotinylated peptides was added to a final concentration of 1 ug/ml, as 100 ul per well to the 96-well ELISA plate, incubated at 37° C. for 1-2 hours, then washed with plate washing solution (PBS+0.01% Tween20)2-3 times. Then the antibody samples to be tested were incubated as 100 μl per well at 37° C. for 1-2 hours, and then the plate was washed 2-3 times with a plate washing solution (PBS+0.01% Tween20). HRP (horseradish peroxidase) labeled secondary antibody was added, and the plate was incubated at 37° C. for 1-2 hours, and washed 2-3 times with a plate washing solution (PBS+0.01% Tween20). 100 μl of TMB substrate was added to each well. After incubated at room temperature for 15-30 minutes, the plate was added with 100 μl of stop solution (1.0N HCl) to each well.
A general note: ELISA stands for enzyme-linked immunosorbent assay.

In experiment [4] the target is T4, WGPRPRRYTVLSK-Biotin (human).
T4 construct: Overlapping peptide of the outer loop of human LAG-3; also called LAG-3 Extra cyclic peptide
T4 peptide: WGPRPRRYTVLSK-{Biotin′}
Described as above. Here is the method: as §1

The target of experiment [5] is T5, AAPSSWGPRPRRK-Biotin (human).
T5 construct: Overlapping peptide of the outer loop of human LAG-3; also called LAG-3 Extra cyclic peptide
T5 peptide: AAPSSWGPRPRRK-{Biotin′}
The description is as above. Here is the method: as §1

Primed or numbered codes have the meaning given here. No end group written: not given here. Biotin′ = biotin label at the C-terminus

B1: 556F6B8 mouse-human chimeric antibody (antibody, V domains shown)
VH: RVQLKQSGPGLVQPSQSLSITCTVSGFSLIKYGVHWVRQSPGEGLEWLGVIWRGGITDYNAAFMSRLSITKDNSKSQVFFKMNSLQADDTAIYYCAKWDGPLAMDYWGQGTSVTVSS
VL: DIVMTQSHKFLSTSVGDRVSITCKASQDVGTTVAWYQQKPGQSPKLLIYWASTRHTGVPDRFTGSGSGTDFTLTISNVQSEDLADYFCQQYSSYPYTFGGGTKLEIK
notes: also called mAb123-556F6B8; 556F8B8
In the case of B1, the Mean fluorescence intensity in experiment [1] was found to be 6.5.

B2: 556F6B8 (LAG-3 mouse-human chimeric antibody) (antibody, V domains shown)
VH: RVQLKQSGPGLVQPSQSLSITCTVSGFSLIKYGVHWVRQSPGEGLEWLGVIWRGGITDYNAAFMSRLSITKDNSKSQVFFKMNSLQADDTAIYYCAKWDGPLAMDYWGQGTSVTVSS
VL: DIVMTQSHKFLSTSVGDRVSITCKASQDVGTTVAWYQQKPGQSPKLLIYWASTRHTGVPDRFTGSGSGTDFTLTISNVQSEDLADYFCQQYSSYPYTFGGGTKLEIK
notes: also called 556F8B8
For the molecule B2, in experiment [2], the OD450 was determined as 0.14 OD450.

B3: 405B8H3 (mouse antibody purified from hybridoma) (antibody, V domains shown)
VH: QVQLQQSGAELVRPGASVTLSCKASGYTFTDYEMHWVKQTPVHGLEWIGATDPETGNSAYNQKFKGKAIMTADKSSSTAYMELRSLTSEDSAVYYCISTGWNDWGQGTSLTVSS
VL: DIKMTQSPSSMYASLGERVTITCKASQDINSYLSWFQQKPGKSPKTLIYRADRLLDGVPSRFSGSGSGQDYSLTISSLEYGDMGIYYCLQYDEFPYTFGGGTKLEIK
notes: also called mAb103-405B8H3; 405B81-13
Turning to B3, the binding result in experiment [3], in experiment [4] and in experiment [5] was “binds” each time.

B4: 105F1E10 mouse-human chimeric antibody (antibody, V domains shown)
VH: EVQLQQSGPELVKPGASVKMSCRASGYTFTDFKMHWMKQSHGKSLEWIGYIAPNNGGTAYNQKFRGKATLTVNESSNTAYMELRSLTSEDSAVYYCVDWDDVDYWGQGTTLTVSS
VL: DIKMTQSPSSMYASLGERVTITCKASQDINSYLSWFQQKSGKSPKTLIYRANRLVDGVPSRFSGSGSGQDYSLTISSLEYEDMGIYYCLQYVEFPLTFGAGTKLELK
notes: also called mAb009-105F1E10
Consider B4, for which the Mean fluorescence intensity in experiment [1] was found to be 5.1.

B5: 405B8H3 mouse-human chimeric antibody (antibody, V domains shown)
VH: QVQLQQSGAELVRPGASVTLSCKASGYTFTDYEMHWVKQTPVHGLEWIGATDPETGNSAYNQKFKGKAIMTADKSSSTAYMELRSLTSEDSAVYYCISTGWNDWGQGTSLTVSS
VL: DIKMTQSPSSMYASLGERVTITCKASQDINSYLSWFQQKPGKSPKTLIYRADRLLDGVPSRFSGSGSGQDYSLTISSLEYGDMGIYYCLQYDEFPYTFGGGTKLEIK
notes: also called mAb103-405B8H3
In experiment [1], B5 came in with a Mean fluorescence intensity of 6.3.

B6: 405B8H3 (LAG-3 mouse-human chimeric antibody) (antibody, V domains shown)
VH: QVQLQQSGAELVRPGASVTLSCKASGYTFTDYEMHWVKQTPVHGLEWIGATDPETGNSAYNQKFKGKAIMTADKSSSTAYMELRSLTSEDSAVYYCISTGWNDWGQGTSLTVSS
VL: DIKMTQSPSSMYASLGERVTITCKASQDINSYLSWFQQKPGKSPKTLIYRADRLLDGVPSRFSGSGSGQDYSLTISSLEYGDMGIYYCLQYDEFPYTFGGGTKLEIK
notes: also called mouse-human chimeric antibody 405B8H3
Turning to B6, the OD450 in experiment [2] was 0.08 OD450.

B7: 105F1E10 (LAG-3 mouse-human chimeric antibody) (antibody, V domains shown)
VH: EVQLQQSGPELVKPGASVKMSCRASGYTFTDFKMHWMKQSHGKSLEWIGYIAPNNGGTAYNQKFRGKATLTVNESSNTAYMELRSLTSEDSAVYYCVDWDDVDYWGQGTTLTVSS
VL: DIKMTQSPSSMYASLGERVTITCKASQDINSYLSWFQQKSGKSPKTLIYRANRLVDGVPSRFSGSGSGQDYSLTISSLEYEDMGIYYCLQYVEFPLTFGAGTKLELK
The molecule B7 yielded an OD450 in experiment [2] of 0.09 OD450.

B8: 409B11E12 mouse-human chimeric antibody (antibody, V domains shown)
VH: QVQLQQSGAELVRPGASVTLSCKASGYTFTDYEMHWVKQTTVHGLEWIGATDPETSYSAYNQKFKGKAILTADKSSSTAYMELRSLTSEDSAVYYCIATGWNDWGQGTSLTVSS
VL: DLKMTQSPSSMYASLGERVTITCKASQDINSYLSWFQQKPGKSPKTLIYRANRLLDGVPSRFSGSGSGQDYSLTISSLEYEDMGIYYCLQYDEFPYTFGGGTKLEIK
notes: also called mAb104-409B11E12
Turning to B8, in experiment [1], the Mean fluorescence intensity turned out to be 6.3.

B9: 409D4E10 mouse-human chimeric antibody (antibody, V domains shown)
VH: QVQLQQSGAELVRPGASVTLSCKASGNTFTDYEMHWVKQTPVHGLEWIGATDPETDNTAYNQKFKGKAILTTDKSSSTAYMELRSLTSEDSAVYYCITSGWNDWGQGTSLTVSS
VL: DIKMTQSPSSMYASLGERVTITCKASQDINSYLSWFQQKPGKSPKTLIYRANRLLDGVPSRFSGSGSGQDYSLTISSLEYEDMGIYYCLQYNEFPYTFGGGTKLEIK
notes: also called mAb112-409D4E10
For the molecule B9, in experiment [1], the Mean fluorescence intensity came to 6.3.

B10: 409B11E12 (LAG-3 mouse-human chimeric antibody) (antibody, V domains shown)
VH: QVQLQQSGAELVRPGASVTLSCKASGYTFTDYEMHWVKQTTVHGLEWIGATDPETSYSAYNQKFKGKAILTADKSSSTAYMELRSLTSEDSAVYYCIATGWNDWGQGTSLTVSS
VL: DLKMTQSPSSMYASLGERVTITCKASQDINSYLSWFQQKPGKSPKTLIYRANRLLDGVPSRFSGSGSGQDYSLTISSLEYEDMGIYYCLQYDEFPYTFGGGTKLEIK
With B10, the OD450 in experiment [2] came to 0.09 OD450.

B11: 409D4E10 (LAG-3 mouse-human chimeric antibody) (antibody, V domains shown)
VH: QVQLQQSGAELVRPGASVTLSCKASGNTFTDYEMHWVKQTPVHGLEWIGATDPETDNTAYNQKFKGKAILTTDKSSSTAYMELRSLTSEDSAVYYCITSGWNDWGQGTSLTVSS
VL: DIKMTQSPSSMYASLGERVTITCKASQDINSYLSWFQQKPGKSPKTLIYRANRLLDGVPSRFSGSGSGQDYSLTISSLEYEDMGIYYCLQYNEFPYTFGGGTKLEIK
Take B11: the OD450 in experiment [2] was found to be 0.1 OD450.

The record behind these values is patent publication US20210155689A1 (SHANGHAI PHARMAEXPLORER, published 2021).
